Results published in the supplement of paper PMC10065799, “High-throughput profiling of sequence recognition by tyrosine kinases and SH2 domains using bacterial peptide display” (eLife, 2023).

Tests used:
MERTK = MERTK (UniProt Q12866); assay: phosphorylation enrichment, bacterial display (enrichment ratio); higher = better substrate or ligand; peptides without Tyr show the background
c-Abl (mouse) = assay: as above
FGFR1 = FGFR1 (UniProt P11362); assay: as above
Fes = Fes (UniProt P07332); assay: as above
AncSZ = assay: as above
Fyn = Fyn (UniProt P06241); assay: as above
Fer (mouse) = assay: as above
FGFR3 = FGFR3 (UniProt P22607); assay: as above
c-Src = assay: as above
EPHB2 = EPHB2 (UniProt P29323); assay: as above
Jak2 = Jak2 (UniProt O60674); assay: as above
Hck = Hck (UniProt P08631); assay: as above
EPHB1 = EPHB1 (UniProt P54762); assay: as above
Grb2 SH2 = Grb2 SH2 (UniProt P62993); assay: SH2 binding enrichment of the phosphorylated peptide, bacterial display (enrichment ratio); higher = better substrate or ligand; peptides without Tyr show the background
SHP2-C SH2 = assay: as above
c-Src SH2 = assay: as above
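For SH2 binding enrichment of the phosphorylated peptide, bacterial display in this document: peptide library displayed on the E. coli surface as eCPX fusions, selected cells deep-sequenced, score is each peptide's frequency after selection divided by its frequency in the input.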
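For phosphorylation enrichment, bacterial display in this document: 11-residue human phosphosite peptides and single-mutation variants displayed on the E. coli surface, counted by deep sequencing, each peptide's frequency after selection divided by its frequency in the unselected input library; frequency after pTyr selection over input frequency; kinase dosed for 20-30% of maximal phosphorylation in three min.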

Fyn, sequence (P06241 whole entry, looked up): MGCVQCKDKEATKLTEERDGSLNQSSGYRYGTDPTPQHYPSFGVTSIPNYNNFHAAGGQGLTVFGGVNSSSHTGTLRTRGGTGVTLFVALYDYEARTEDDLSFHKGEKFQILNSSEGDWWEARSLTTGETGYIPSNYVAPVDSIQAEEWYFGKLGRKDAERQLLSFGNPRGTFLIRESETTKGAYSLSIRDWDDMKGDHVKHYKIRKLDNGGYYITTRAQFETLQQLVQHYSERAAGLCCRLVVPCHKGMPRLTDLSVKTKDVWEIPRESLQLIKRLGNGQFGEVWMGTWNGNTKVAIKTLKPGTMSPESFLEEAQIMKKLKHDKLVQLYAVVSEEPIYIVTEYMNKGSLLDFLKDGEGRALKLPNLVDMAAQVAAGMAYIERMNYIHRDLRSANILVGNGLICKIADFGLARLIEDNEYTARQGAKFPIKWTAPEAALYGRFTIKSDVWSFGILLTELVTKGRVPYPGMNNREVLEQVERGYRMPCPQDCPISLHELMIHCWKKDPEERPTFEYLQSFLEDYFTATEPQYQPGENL
Jak2, sequence (O60674 whole entry, looked up): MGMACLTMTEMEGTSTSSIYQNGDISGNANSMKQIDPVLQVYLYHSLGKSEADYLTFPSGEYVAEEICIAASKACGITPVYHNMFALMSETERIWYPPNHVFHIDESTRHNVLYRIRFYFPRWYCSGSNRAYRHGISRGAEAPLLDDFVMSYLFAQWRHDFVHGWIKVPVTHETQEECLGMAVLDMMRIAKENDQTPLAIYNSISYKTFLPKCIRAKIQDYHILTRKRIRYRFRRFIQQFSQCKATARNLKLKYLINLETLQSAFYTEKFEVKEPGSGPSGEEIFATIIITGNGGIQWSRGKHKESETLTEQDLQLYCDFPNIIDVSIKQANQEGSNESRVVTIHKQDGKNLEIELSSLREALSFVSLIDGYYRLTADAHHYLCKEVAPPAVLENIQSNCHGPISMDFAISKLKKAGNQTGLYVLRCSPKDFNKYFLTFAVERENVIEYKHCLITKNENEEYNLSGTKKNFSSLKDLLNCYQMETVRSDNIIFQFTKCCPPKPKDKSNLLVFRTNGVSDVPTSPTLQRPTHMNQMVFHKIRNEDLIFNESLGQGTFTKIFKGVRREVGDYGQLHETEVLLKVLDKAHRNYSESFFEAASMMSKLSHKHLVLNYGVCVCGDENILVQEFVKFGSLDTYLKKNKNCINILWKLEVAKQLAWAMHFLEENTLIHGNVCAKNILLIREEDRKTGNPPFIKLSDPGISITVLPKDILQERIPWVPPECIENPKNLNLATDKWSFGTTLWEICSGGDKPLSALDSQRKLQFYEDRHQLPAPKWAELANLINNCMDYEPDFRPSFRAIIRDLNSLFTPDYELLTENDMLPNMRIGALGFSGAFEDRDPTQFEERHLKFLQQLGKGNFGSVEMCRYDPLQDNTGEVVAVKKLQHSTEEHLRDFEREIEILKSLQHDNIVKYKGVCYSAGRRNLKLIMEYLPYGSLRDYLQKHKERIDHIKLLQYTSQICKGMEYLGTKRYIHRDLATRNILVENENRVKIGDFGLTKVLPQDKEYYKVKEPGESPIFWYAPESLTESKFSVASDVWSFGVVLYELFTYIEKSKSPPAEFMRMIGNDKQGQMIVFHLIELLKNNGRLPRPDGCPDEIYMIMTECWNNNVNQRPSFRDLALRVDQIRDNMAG
FGFR3, sequence (P22607 whole entry, looked up): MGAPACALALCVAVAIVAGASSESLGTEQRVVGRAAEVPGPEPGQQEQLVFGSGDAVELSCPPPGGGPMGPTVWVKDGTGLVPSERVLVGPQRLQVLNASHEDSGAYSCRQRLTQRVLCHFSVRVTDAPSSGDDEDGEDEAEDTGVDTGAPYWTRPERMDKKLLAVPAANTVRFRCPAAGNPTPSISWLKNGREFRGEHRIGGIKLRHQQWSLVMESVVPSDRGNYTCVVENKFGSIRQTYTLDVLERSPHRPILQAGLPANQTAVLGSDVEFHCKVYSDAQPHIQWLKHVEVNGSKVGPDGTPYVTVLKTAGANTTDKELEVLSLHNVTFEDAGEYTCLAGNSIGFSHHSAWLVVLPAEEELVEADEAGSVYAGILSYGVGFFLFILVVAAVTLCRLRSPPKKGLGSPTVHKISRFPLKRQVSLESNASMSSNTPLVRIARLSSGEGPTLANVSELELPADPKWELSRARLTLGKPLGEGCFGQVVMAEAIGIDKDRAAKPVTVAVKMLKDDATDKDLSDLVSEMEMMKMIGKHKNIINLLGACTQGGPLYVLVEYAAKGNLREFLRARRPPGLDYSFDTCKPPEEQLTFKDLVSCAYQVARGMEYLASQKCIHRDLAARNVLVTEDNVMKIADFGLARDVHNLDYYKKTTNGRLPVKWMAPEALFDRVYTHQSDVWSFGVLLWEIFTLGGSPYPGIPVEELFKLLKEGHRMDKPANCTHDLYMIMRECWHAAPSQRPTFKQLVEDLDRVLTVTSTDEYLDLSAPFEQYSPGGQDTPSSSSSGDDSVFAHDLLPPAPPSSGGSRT
Fes, sequence (P07332 whole entry, looked up): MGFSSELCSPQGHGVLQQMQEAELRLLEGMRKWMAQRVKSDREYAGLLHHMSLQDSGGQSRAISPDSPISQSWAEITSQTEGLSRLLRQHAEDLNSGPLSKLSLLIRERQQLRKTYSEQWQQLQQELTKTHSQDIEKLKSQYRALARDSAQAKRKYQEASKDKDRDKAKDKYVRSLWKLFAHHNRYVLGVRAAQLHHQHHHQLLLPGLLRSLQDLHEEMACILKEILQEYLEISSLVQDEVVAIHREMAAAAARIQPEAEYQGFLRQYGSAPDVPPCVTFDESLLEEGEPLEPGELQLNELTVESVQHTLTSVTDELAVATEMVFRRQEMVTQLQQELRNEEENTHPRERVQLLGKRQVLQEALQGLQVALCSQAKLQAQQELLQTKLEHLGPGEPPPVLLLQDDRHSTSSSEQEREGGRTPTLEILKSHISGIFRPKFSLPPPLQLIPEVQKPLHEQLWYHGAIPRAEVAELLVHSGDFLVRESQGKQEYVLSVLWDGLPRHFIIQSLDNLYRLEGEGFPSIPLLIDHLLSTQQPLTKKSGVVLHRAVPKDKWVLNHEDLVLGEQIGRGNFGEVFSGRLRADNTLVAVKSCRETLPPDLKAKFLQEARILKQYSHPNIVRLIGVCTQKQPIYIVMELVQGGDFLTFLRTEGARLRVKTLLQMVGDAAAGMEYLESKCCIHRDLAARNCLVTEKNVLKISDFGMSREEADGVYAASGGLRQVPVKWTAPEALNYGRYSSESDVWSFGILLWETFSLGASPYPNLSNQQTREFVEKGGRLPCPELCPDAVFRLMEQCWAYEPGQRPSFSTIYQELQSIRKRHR
EPHB1, sequence (P54762 whole entry, looked up): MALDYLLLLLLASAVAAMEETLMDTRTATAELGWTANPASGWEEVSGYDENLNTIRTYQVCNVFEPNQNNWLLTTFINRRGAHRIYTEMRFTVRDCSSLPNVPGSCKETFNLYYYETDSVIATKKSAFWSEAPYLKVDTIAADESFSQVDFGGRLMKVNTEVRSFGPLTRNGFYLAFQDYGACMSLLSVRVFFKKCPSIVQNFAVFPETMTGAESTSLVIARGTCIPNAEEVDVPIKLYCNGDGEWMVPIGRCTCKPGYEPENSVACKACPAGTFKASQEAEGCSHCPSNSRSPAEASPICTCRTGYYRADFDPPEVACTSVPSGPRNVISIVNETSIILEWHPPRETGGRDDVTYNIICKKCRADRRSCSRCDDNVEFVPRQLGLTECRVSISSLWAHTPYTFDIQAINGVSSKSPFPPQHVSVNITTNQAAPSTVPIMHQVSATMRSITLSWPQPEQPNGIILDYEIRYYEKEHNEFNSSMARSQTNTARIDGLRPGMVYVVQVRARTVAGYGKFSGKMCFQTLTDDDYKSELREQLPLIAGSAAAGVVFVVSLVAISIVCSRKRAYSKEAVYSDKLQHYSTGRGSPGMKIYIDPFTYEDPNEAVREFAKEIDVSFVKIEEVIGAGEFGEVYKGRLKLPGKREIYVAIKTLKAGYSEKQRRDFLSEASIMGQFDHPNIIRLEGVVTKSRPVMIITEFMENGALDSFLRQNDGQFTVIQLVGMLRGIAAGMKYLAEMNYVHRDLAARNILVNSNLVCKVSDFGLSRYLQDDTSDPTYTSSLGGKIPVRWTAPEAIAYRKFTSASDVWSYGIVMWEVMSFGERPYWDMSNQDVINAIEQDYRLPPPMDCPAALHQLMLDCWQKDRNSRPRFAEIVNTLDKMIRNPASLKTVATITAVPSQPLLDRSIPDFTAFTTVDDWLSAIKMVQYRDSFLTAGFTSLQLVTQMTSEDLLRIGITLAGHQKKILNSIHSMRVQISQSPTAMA
Hck, sequence (P08631 whole entry, looked up): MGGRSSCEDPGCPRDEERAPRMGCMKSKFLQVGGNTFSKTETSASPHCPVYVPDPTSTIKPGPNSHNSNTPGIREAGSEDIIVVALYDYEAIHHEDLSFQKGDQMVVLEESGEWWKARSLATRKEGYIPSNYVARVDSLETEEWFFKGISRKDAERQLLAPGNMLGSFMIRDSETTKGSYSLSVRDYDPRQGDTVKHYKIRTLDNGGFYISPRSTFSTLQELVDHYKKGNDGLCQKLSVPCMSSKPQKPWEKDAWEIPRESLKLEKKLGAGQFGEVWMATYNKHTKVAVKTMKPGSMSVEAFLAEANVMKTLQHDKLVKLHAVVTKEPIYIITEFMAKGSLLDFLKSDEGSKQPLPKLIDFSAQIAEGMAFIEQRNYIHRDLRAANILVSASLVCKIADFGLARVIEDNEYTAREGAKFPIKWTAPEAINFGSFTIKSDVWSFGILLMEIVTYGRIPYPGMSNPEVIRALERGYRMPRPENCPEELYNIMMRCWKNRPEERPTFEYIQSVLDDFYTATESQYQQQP
Grb2 SH2, sequence (P62993 whole entry, looked up): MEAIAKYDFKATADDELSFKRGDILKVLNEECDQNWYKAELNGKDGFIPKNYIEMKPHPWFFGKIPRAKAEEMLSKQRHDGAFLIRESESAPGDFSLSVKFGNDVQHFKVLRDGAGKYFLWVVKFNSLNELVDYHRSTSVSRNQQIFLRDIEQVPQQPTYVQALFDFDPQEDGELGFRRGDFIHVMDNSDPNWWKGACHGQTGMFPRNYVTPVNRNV

Sequence	phosphorylation enrichment (MERTK)	phosphorylation enrichment (c-Abl (mouse))	phosphorylation enrichment (FGFR1)	phosphorylation enrichment (Fes)	phosphorylation enrichment (AncSZ)	phosphorylation enrichment (Fyn)	phosphorylation enrichment (Fer (mouse))	phosphorylation enrichment (FGFR3)	phosphorylation enrichment (c-Src)	phosphorylation enrichment (EPHB2)	phosphorylation enrichment (Jak2)	phosphorylation enrichment (Hck)	phosphorylation enrichment (EPHB1)	SH2 binding enrichment (Grb2 SH2)	SH2 binding enrichment (SHP2-C SH2)	SH2 binding enrichment (c-Src SH2)
LQLLGHRPVFS [CHST6_Y358_Y358H_YF]	0.602	0.919	0.657	1.33	0.901	0.786	0.817	0.785	0.579	0.783	1.03	0.957	0.847	0.912	0.923	0.544
LQRCKYSHMEP [TEX45_Y434]	0.614	1.16	0.663	1.35	1.21	0.375	0.582	0.957	0.982	0.876	1.5	0.672	0.513	0.64	1.1	0.78
LRAGVYREKDQ [DNM2_Y626_P627R]	0.398	0.514	0.335	0.636	0.882	0.35	0.349	0.524	0.448	0.295	0.38	0.449	0.392	0.646	0.478	0.427
LRSELYFLIAR [PHIP_Y16]	7.59	1.63	3.06	1.71	2.02	0.769	0.916	3.17	1.5	1.4	3.62	1.93	1.54	1.44	1.03	1.05
LRSELYSLIAR [PHIP_Y16_F17S]	11	0.566	0.693	1.11	0.919	1.63	4.78	0.811	2.26	1.36	0.54	7.53	5.23	1.15	1.05	1.89
LRVHSYKSMQP [DRC7_Y516]	0.423	0.785	0.479	0.769	0.797	0.567	0.565	0.671	0.55	0.515	0.476	0.684	0.526	1.25	0.957	0.607
LSAPEYGPKLK [TBC1D14_Y46]	0.383	0.456	0.58	0.514	0.592	0.451	0.458	0.565	0.412	0.425	0.409	0.537	0.539	1.02	0.665	0.5
LSFSEYASVQV [SIRPA_Y496_P491L]	0.671	4.03	2.22	1.64	2.44	3.8	5.53	2.1	2.14	8.7	1.1	2.93	7.83	0.934	0.783	0.671
LTDLRYKVSGL	0.427	0.565	0.496	0.725	0.581	0.352	0.404	0.437	0.46	0.479	0.575	0.377	0.379	0.761	0.498	0.397
LTELGYSFVTT [ACTA1_Y200_R198L]	1.12	1.51	5.04	3.61	3.14	1.88	2.05	3.42	1.11	1.46	1.93	1.9	1.44	0.797	3.2	8.8
LTGIAYSLPHW [SLC22A14_Y291]	3.24	1.41	0.658	1.68	1.61	0.921	0.877	0.956	0.764	0.94	0.997	1.08	0.969	0.847	5.82	4.06
LTNDRYLATLT [IL6ST_Y396]	0.597	1.58	0.676	1.07	0.761	0.746	0.568	0.586	0.533	0.709	0.97	0.463	0.625	1.04	0.722	0.541
LTTEAYEWEPC [ELMOD3_Y61_R66C]	1.57	4.16	2.04	6.22	5.1	1.58	2.88	3.7	5.66	2.44	6.69	1.88	3.5	1.02	0.959	1.37
LVRAFYCERRR [CARD11_Y970]	0.902	0.597	0.766	0.713	0.684	0.844	0.624	0.585	0.988	1.71	0.705	1.14	0.62	0.383	0.449	0.243
LVRPPYSFLAL [FOXI1_Y126_S129L_YF]	1.05	0.526	1.07	0.787	0.683	0.525	1.22	0.866	0.525	0.523	0.71	0.727	0.584	0.713	0.842	0.547
MDFRSYPHEFG [RBM10_Y44_R46H_YF]	0.366	0.465	0.464	0.69	0.64	0.397	0.354	0.526	0.317	0.402	0.536	0.335	0.434	0.88	0.766	0.624
MDYRSYPHEYG [RBM10_Y44_R46H]	0.486	0.561	0.602	0.854	0.832	0.419	0.404	0.632	0.518	0.551	0.682	0.484	0.542	0.647	0.724	0.494

Sequence	phosphorylation enrichment (MERTK)	phosphorylation enrichment (c-Abl (mouse))	phosphorylation enrichment (FGFR1)	phosphorylation enrichment (Fes)	phosphorylation enrichment (AncSZ)	phosphorylation enrichment (Fyn)	phosphorylation enrichment (Fer (mouse))	phosphorylation enrichment (FGFR3)	phosphorylation enrichment (c-Src)	phosphorylation enrichment (EPHB2)	phosphorylation enrichment (Jak2)	phosphorylation enrichment (Hck)	phosphorylation enrichment (EPHB1)	SH2 binding enrichment (Grb2 SH2)	SH2 binding enrichment (SHP2-C SH2)	SH2 binding enrichment (c-Src SH2)
MEYAKYGSLRG [RET_Y809_V804M]	0.436	0.474	0.461	0.605	0.622	1.14	0.431	0.458	1.9	0.465	0.536	1.29	0.569	0.703	0.607	0.484
MFKPMYALFRT [HUWE1_Y4078_N4075K]	2.87	1.85	0.606	0.982	0.921	0.779	0.815	0.698	1.75	0.621	0.704	0.872	0.963	1.35	1.86	1.52
MFNPCYGLFEF [NEDD4L_Y680_Y679C_YF]	2.85	0.917	0.578	1.27	1.33	4.92	4.76	0.766	4.79	0.65	1.07	2.27	0.633	0.929	0.558	0.67
MGHVNYGAFIN [GLB1_Y485_R482H_YF]	0.391	0.565	0.449	0.756	0.611	0.672	0.406	0.505	0.706	0.615	0.72	0.609	0.565	0.882	0.804	0.44
MHDKEYFSVHN [MET_Y1234_Y1230H_YF]	0.449	0.737	1.4	0.741	0.954	0.53	0.497	0.969	0.487	0.619	0.921	0.494	0.554	1.12	0.834	0.683
MICSAYALGGL [CPS1_Y590_R587C]	0.571	0.811	0.635	1.05	0.961	0.659	0.551	0.844	0.779	0.601	0.983	0.72	0.623	0.764	0.506	0.552
MIRSTYALGGL [CPS1_Y590_A589T]	0.488	0.498	0.774	0.693	0.63	0.466	0.489	0.486	0.546	0.521	0.73	0.487	0.4	0.699	0.626	0.439
MKGDFYRFLAE [YWHAG_Y131_YF]	0.734	0.596	0.448	0.798	0.803	0.429	0.426	0.49	0.448	0.494	0.845	0.349	0.497	0.706	0.36	0.479
MKGEYYRYLAE [YWHAG_Y131_D129E]	0.471	0.82	4.14	1.07	1.12	0.606	0.429	2.92	0.795	0.779	1.42	0.732	0.685	0.922	1.12	0.676
MKVPVYETPAG [PGM5_Y358]	5.35	18.2	0.492	1.08	1.57	6.27	11.6	0.649	5.2	18.2	0.903	7.86	11.7	0.851	0.698	1.28
MLEVPYVDRNS [F10_Y384]	0.317	0.611	0.411	0.89	0.847	0.382	0.434	0.643	0.395	0.494	0.789	0.453	0.499	0.724	0.708	0.457
MMVGAYSSLEG [ECPAS_Y470_T472S]	1.97	0.785	0.514	0.754	0.631	0.533	0.528	0.515	0.671	0.434	0.563	0.832	0.469	0.82	0.77	7.6
MNKNAYHNVTA [ST3GAL6_Y306]	0.404	0.465	0.499	0.52	0.524	0.519	0.379	0.451	0.331	0.341	0.443	0.46	0.686	3.88	0.51	2.14
MPAVTYTLAMR [MEGF10_Y895_P897L]	0.437	0.724	0.453	1.03	1.08	0.53	0.488	0.73	0.503	0.588	0.845	0.514	0.516	0.758	3.33	0.726
MSRLKYPVSQQ [BTK_Y375_I370M]	0.478	0.573	0.434	0.706	0.573	0.473	0.375	0.621	0.491	0.741	0.54	0.435	0.413	1.03	0.78	0.608
MSRNLYSGDYY [DDR2_Y736]	9.32	0.821	7.13	0.788	2.08	5.12	2.13	5.43	5.09	14.6	1.64	5.53	11.3	0.878	0.612	0.845
